# ± gives the standard deviation of the averaged measurements.
# Tested on: VchCAST RNA-guided transposition machinery (E. coli BL21(DE3) host, lacZ target)
# Assay: relative integration efficiency (T-RL orientation) vs wild-type transposon end (log2 (normalized fold change)); transposon end mutated: right end (5 bp flank + 75 bp right end); higher = more efficient transposition
# Method: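 Pooled, barcoded VchCAST (Tn6677) mini-transposon donor libraries; each variable transposon-end sequence sits in a fixed pDonor mini-transposon context (10-bp barcode and cargo not included). Left- or right-end libraries were co-transformed with pEffector (TniQ-Cascade, TnsABC, lacZ crRNA, T7, 0.1 mM IPTG) into E. coli BL21(DE3) and grown 18 h at 37 C. T-LR and T-RL junction amplicons were sequenced; output/input barcode fold change was normalised to the mean of four wild-type barcodes and log2-transformed. Two biological replicates; zero-count/undetected variants carry floor values (-10 / -15), censored here. Barcode uncoupling by PCR recombination adds noise.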
row,Sequence,relative integration efficiency (log2)
1,ACATTTGTTGATCCAACCATAAAATGATAATTACACCCATAAATGGATAATTATCACACCCAATTTAACTATAACGCTCTGATCATAGTCAGACCAACATTGCTACGACCCGTATTCGCACCGACAC,-1.51 ± 0.15
2,ACATTTGTTGATACAACCATAAAATGCGCCGGCACAAACGCCCGGTCGCCGGCGACACAAACGCCCGGTCGCGGTAAGAGGATCATAGTCAGACCAACATTGCTACGACCCGTATTCGCACCGACAC,-3.75 ± 0.078
3,CAATTTGTTGATACAACCATAAAATGATAATTACACCCATAAATTGATAATTATCACACCCATAAATTGATATTGCCTCTGATCATAGTCAGACCAACATTGCTACGACCCGTATTCGCACCGACAC,-0.1076 ± 0.00032
4,ACATTTGTTGATACAACCATAAAGTGATATTTACACCCATAAATTGATAATTATCACAACCATAAAGTGATATTTACTCTGATCATAGTCAGACCAACATTGCTACGACCCGTATTCGCACCGACAC,-0.155 ± 0.041
5,ACATTTGTTGATACAACCATAAAATGATTTTTACACCCATAAATTGATAATTATCACACCCATAAATTGATATTGCCTCTGATCATAGTCAGACCAACATTGCTACGACCCGTATTCGCACCGACAC,-0.483 ± 0.081
6,ACATTTGTTGATACAACCATAAAATGATAATTACACCCATAAATACTAAATTATCACACCCATAAATTGATATTGCCTCTGATCATAGTCAGACCAACATTGCTACGACCCGTATTCGCACCGACAC,-1.56 ± 0.23
7,ACATTTGTTGATACACCCATAAATTGATATTGCCAACCATATATTGATATCTCTCACACCCATAAATTGATATTGCCTCTGATCATAGTCAGACCAACATTGCTACGACCCGTATTCGCACCGACAC,-1.11 ± 0.06
8,ACATTTGTTGATACAACCATAAAATGGTAATTACACCCCTAAATTGATAATTATCACACCCAATTTAACTATAACGCTCTGATCATAGTCAGACCAACATTGCTACGACCCGTATTCGCACCGACAC,-3.07 ± 0.34
9,ACATTTGTTGATACAACCATAAAATGATTATTACACCCATAAATTGATAATGATGACACCGAATTTAACTATAACGCTCTGATCATAGTCAGACCAACATTGCTACGACCCGTATTCGCACCGACAC,-1.31 ± 0.35
10,ACATTTGTTGATACAACCATAAAATGATAATTACACCCATAAATTGATAATTATCACACCCATAAATTGATATTGCCTCTGTTGACGGCTAGCTCAGTCCTAGGTATAGTGCTAGCCGCACCGACAC,-0.43 ± 0.065
11,ACATTTGTTGATACAACCATAAAAGGATCATTACACCCATCAATTGATAATTATCACACCCCATTTAACTATAACGCTCTGATCATAGTCAGACCAACATTGCTACGACCCGTATTCGCACCGACAC,-3.25 ± 0.32
12,ACATTTGTTGATACAACCATAACCTGATAATTACACCCATAACGTGATAATTATCACACCCATAACGTGATATTGCCTCTGATCATAGTCAGACCAACATTGCTACGACCCGTATTCGCACCGACAC,-0.513 ± 0.02
13,ACATTTGTTGATACAACCATAAAATGATAATTACAACCATAAAGTGATATTTATCACAACCATAAAGTGATATTTACTCTGATCATAGTCAGACCAACATTGCTACGACCCGTATTCGCACCGACAC,0.0131 ± 0.077
14,ACATTTGTTGATACAACCATAAAATGATAATTACACCCATAAATTCTTAATTATCACACCCATAAATTGATATTGCCTCTGATCATAGTCAGACCAACATTGCTACGACCCGTATTCGCACCGACAC,-1.43 ± 0.18
15,ACATTTGTTGATACAACCATAAAATGATAATTACACCACTAAATTGATAATTATCACACCCATAAATTGATATTGCCTCTGATCATAGTCAGACCAACATTGCTACGACCCGTATTCGCACCGACAC,-1.78 ± 0.12
16,ACATTTGTTGATACAACCATAAAATGATCATTACCCCCATAAATTGATAATTATCACACCCCATTTAACTATAACGCTCTGATCATAGTCAGACCAACATTGCTACGACCCGTATTCGCACCGACAC,-1.23 ± 0.22
17,ACATTTGTTGATACAACCATAAAATGATAATTAATAATTATTTATAATCACCCATAAATTGATAATTATCAACAAACGCCCGGTCGCGGTACTCTGATCATAGTCAGACCAACATTGCTACGACCCG,-3.08 ± 0.15
18,ACATTTGTTGATACACCCATAAATTGATAATTACAACCATAAGTTGATATTTTTCAGTGGGTATTTAACTATAACGCTCTGATCATAGTCAGACCAACATTGCTACGACCCGTATTCGCACCGACAC,-0.128 ± 0.33
19,ACATTTGTTGATACAACCATAAAATGGTAATTCCACCCCTAAATTGATAATTATCACACCCAATTTAACTATAACGCTCTGATCATAGTCAGACCAACATTGCTACGACCCGTATTCGCACCGACAC,-3.6 ± 0.27
20,ACATTTGTTGATACAACCATAAAATGATAATTAATAATTATTTATAATCAGCAACTTAACCACAAAACACCCATAAATTGATAATTATCACACCCATAAATTGATATTGCCTCTGATCATAGTCAGA,-4.6 ± 1
21,ACATTTGTTGATGCAACCATAAAATGATAATTAATAATTATTTATAATCAGCAACTTAACCACAAAACACCCATAAATTGATAATTAACAAAACACCCATAAATTGATATTGCCTCTGATCATAGTC,-4.62 ± 0.92
22,ACATTTGTTGATACCCAACGCCCCGTCGCCGGCACAAACGCCCGGTCGCCGGCGACACAAACGCCCGGTCGCGGTAAGAGGATCATAGTCAGACCAACATTGCTACGACCCGTATTCGCACCGACAC,-6.49 ± 0.44
23,ACATTTGTTGATACAACCATAAAATGATAATTAATAATTATTTATAATCAGCAACTTAACCACAAAACACCCATAAATTGATAATTAACACACCCATAAATTGATATTGCCTCTGATCATAGTCAGA,-5.33 ± 0.24
24,ACATTTGTTCATACAACCCTAAAATGATAATTACACCCATAAATTCATAATTATCACCCCCAATTTAACTATAACGCTCTGATCATAGTCAGACCAACATTGCTACGACCCGTATTCGCACCGACAC,-5.3 ± 0.43
25,ACATTTGTTCAACCATAAAATGATAATTACACCCATAAATTGATAATTATCACACCCATAAATTGATATTGCCTCTGATCATAGTCAGACCAACATTGCTACGACCCGTATTCGCACCGACACTGAC,-7.3 ± 0.12
26,ACATTTGTTGATATGTTGCAACCATAAAATGATAATTACACCCATAAATTGATAATTATCACACCCATAAATTGATATTGCCTCTGATCATAGTCAGACCAACATTGCTACGACCCGTATTCGCACC,-6.84 ± 0.38

# — the supplement of paper PMC10201428
